Reference: patent publication US20200002405A1 (ADMINISTRATORS OF THE TULANE EDUCATIONAL FUND, published 2020)

B1: NE13 (antibody, V domains shown)
VH: EVQLVESGGGLVKPGGSLRLSCVASGFTFSSYSMNWVRQAPGKGLEWVSSISSGSSYIEYADSVKGRLTISRDNAKKSLYLQLNSLRAEDTAVYYCARHTARIDSYHGMDVWGQGTTVTVSS
VL: ETTLTQSPGTLSLSPGERATLSCRASQSVSSTYLAWYQQKPGQSPRLLIYGASSRATGIPDRFSGSGSGTQFTLTINRLEPEDFAVYYCQQFGSPWTFGQGTKVEIKR
B2: 8.11G (antibody, V domains shown)
VH: QVQLQESGPGLVKPSETLSLTCSISGVSTRNYYWSWIRQSPGKGLEWIGYIFNIGTTNYNPSLKSRLTISVDTSKNQFSLKITSVTAADTAVYYCASGFEYGDYTFDYWGQGTPVTVSS
VL: EIVLTQSPATLSVSPGGRASLSCRASQSIGDKLSWYQQKPGQAPRLVIYGAYTRATDISPRFSGSRSGTDFNLTISRMQSGDFAVYFCQQYENWPRTFGQGTKLEIKR
B3: 19.7E (antibody, V domains shown)
VH: EVQLVESGGGLVRPGGSLRLSCAASGFSFSSYSMHWVRHVPGKGLVWVSYINSDGSTKIYADSVKGRFSISRDNAKNKLYLQMDSLRVEDTAVYSCVRLVHYDWSPFVWGQGTLVTVSS
VL: EIVLTQSPSTLSASVGDRVTITCRASQSINNWLAWYQEKPGKAPKLLINKASSLESGVPSRFSGSGSGTEFTLTITSLQPDDFATYYCQQYNSNSWTFGQGTKVDMKR
B4: 25.10C (antibody, V domains shown)
VH: QVQLQESGGGLVKPGGSLRLSCTASGFNFNKYNMNWVRQAPGKGLEWVSSISALSTYIYYADSLKGRFTVSRDNAKNSLFLQMNSLRDDDTAVYYCAREIRRASTWSADLWGRGTLVTVSS
VL: DIQMTQSPSSLSASVGDRVIITCRASQSISSSLNWYQQKPGKAPKLLIYAAVNLETGVPSRFSGSGFGTDFTLAISNVQPEDFATYYCQQSDTRTFGRGTKLDVKR
B5: 10.4B (antibody)
VH: DQVQLVQSGGGVVQPGRSLRVSCVTSGFNFRAYGMHWVRQIPGKGLEWVADIWSAETNRHYADSVKGRFTISRDNSKSTLYLQMNSLRAEDTGVYFCAKARPGYDYVVDLWGQGTLVIVSSASTKGPSVFPLAPCSRSTSGGTAALGCLVKDYFPEPVTVSWNSGALTSGVHTFPAVLQSSGL
VL: DEIVLTQSPSSLSASVGDRVTITCRASRDINTYLGWFQQRPGKAPKSLIYGASNLQNGVPSRFSGSGSGTYFTLTINGLQTEDFATYYCQQYSIYPLSLGGGTKADMKRTVAAPSVFIFPPSDEQLKSGTASVVCLLNNFYPREAKVQWKVDNALQSGNSQESVTEQDSKDSTYSLSSTLTLSKADYEKHKVYACEVTHQGLSSP
B6: 37.2D (antibody, V domains shown)
VH: EVQLVQSGAEVKKPGASVKVSCKASGYTFTKYGISWVRQAPGQGLEWMGWISAFNGYTRYGQRFQGKVTMTTDTSTNTASLEVRTLTSNDTAVYYCARQYPDQYSSSGWPRLFAMDVWGQGTTVIVSP
VL: ETTLTQSPATLSVSPGETATLSCRASQNVINNLAWYQQKPGQAPRLLIYGASTRATGIPARFSGSGSGTEFTLTISSMQSEDFAVYYCQQYNDWPRSFGQGTRLDIRR
B7: 9.8A (antibody, V domains shown)
VH: EVQLVQSGGRLVQPGGSLRLSCVASGFTFSSHAMSWVRQAPGKGLEWVSGFSGSSGTTKYADSVKGRFTISRDNSKKTLYLQMNSLRAEDTAVYYCAKGFSPFRGVQFPYFDYWGQGTLVTVSS
VL: DIVMTQSPSTLSASVGDRVTITCRASQSIDRWLAWYQQKPGKAPKLLIYQASSLERGVPSRFSGSGSGTEFTLTISSLQPDDFATYYCQQYNGYPLTFGGGTKVEIKR
B8: 25.6A (antibody, V domains shown)
VH: QVQLQESGGGLVKAGGSLRLSCAASGFMFERYSLHWVRQTPGKGLEWVSSISSLSGSHINYADSVKGRFTISRDNAKNSLSLQMNSLRVEDTAIYYCARDRRSGSSPVPLDVWGQGTTVTVSS
VL: DLPVLTQPASVSGSPGQSITISCTGTSSDVGAYNYVSWYQQHPGKAPKLIIYEVKIRPSGVSNRFSGSKSGNTASLTISGLQAEDEADYFCSSYSTNSPWVFGGGTKVTVLR
B9: 36.9F (antibody, V domains shown)
VH: EVQLVQSGGGLVKAGGSLKLSCGASGFTFSSYSMSWVRQAPGKGLEWVSYISSGGSSIHYADSVKGRFTISRDNAKNSLYLQMKNLRVDDTGRYYCVRDPRSGISGRYGMDVWGQGTTVTVSS
VL: DIVMTQSPDSLAVSLGERATINCKSSQTVLFTSYYVAWYQQKPGQPPKLLFSGASSRESGVPDRFSAGGSGTDFYLTINSLQAEDVADYYCQQYHTPPFTFGGGTKLEIRR
B10: 18.5C (antibody)
VH: DEVQLVESGGGLVRPGGSLRLSCAAAGFTFKSYSMNWVRQAPGRGLEWVSSITSGGSKTYYADVVKGRFTVSRDNAKQSLYLQMNSLRAEDTAIYFCARSLHSTSQPSYMDVWGRKITVIVSSASTKGPSVFPLAPSSKSTSGGTAALGCLVKDYFPEPVTVSWNSGALTSGVHTFPAVLQSSGLYSLSSVVTVPSSSLGTQTYICNVNHKPSNTKVDKRVEPKSCDKTHTCPPCPAPELLGGPSVFLFPPKPKDTLMISRTPEVTC
VL: DDIQMTQSPGTLSLSPGERATLSCRASQSVISYYVAWYQHKGGQAPRLLIYGASSRATGVPDRFSGSGSGTDFTLTISSLEPEDFALYYCQYYGSSPLWAFGQGTKVEIKRTVAAPSVFIFPPSDEQLKSGTASVVCLLNNFYPREAKVQWKVDNALQSGNSQESVTEQDSKDSTYSLSSTLTLSKADYEKHKVYACEVTHQGLSSPVTKSFNRGEC

These binders were tested against T1, LCMV WE strain GP (LCMV, WE strain, UniProt P07399 2-498) (assay: immunofluorescence, 293T cells transfected with GP plasmid).
T1 construct: whole, on cells
T1 sequence: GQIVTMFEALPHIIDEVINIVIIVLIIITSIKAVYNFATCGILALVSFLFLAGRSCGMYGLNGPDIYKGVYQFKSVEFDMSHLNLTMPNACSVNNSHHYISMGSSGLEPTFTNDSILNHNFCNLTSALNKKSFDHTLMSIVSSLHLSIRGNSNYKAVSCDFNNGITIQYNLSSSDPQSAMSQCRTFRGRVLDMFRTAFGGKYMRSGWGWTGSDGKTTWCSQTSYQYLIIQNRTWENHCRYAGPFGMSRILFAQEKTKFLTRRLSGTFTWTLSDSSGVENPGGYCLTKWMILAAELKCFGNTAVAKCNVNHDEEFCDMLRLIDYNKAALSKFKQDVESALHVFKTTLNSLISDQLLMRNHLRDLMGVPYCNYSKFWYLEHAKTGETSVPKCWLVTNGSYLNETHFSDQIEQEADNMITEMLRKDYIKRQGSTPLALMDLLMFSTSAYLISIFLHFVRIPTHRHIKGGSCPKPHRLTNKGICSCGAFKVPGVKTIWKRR

| Binder | binding result |
| --- | --- |
| B1 | no binding |
| B2 | no binding |
| B3 | no binding |
| B4 | no binding |
| B5 | no binding |

The binders below were run against T2, LASV Josiah (lineage IV) glycoprotein, full-length GP (Lassa virus, Josiah strain, UniProt P08669 2-491) (assay: cell-based or functional assay).
T2 sequence: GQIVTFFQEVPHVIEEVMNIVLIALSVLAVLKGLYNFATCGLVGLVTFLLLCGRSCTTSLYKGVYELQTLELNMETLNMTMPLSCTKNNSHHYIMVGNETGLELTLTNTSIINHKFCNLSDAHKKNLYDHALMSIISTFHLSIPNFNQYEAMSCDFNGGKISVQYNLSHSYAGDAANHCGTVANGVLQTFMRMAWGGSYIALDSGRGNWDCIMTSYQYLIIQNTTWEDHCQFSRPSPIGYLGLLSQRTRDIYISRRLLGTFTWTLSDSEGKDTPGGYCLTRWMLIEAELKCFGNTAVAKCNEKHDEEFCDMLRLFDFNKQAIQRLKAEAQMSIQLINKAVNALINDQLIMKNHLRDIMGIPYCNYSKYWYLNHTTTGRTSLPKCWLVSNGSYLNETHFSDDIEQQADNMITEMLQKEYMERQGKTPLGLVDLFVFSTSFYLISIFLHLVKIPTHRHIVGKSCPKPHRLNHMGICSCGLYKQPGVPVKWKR

| Binder | IC50 (neutralization) | IC80 (neutralization) |
| --- | --- | --- |
| B6 | 0.559 µg/mL | 1.98 µg/mL |
| B7 | 1.31 µg/mL | 2.42 µg/mL |
| B2 | 0.361 µg/mL | 1.74 µg/mL |
| B8 | 0.743 µg/mL | 2 µg/mL |
| B9 | 18 µg/mL | > 20 µg/mL |
| B10 | 1.94 µg/mL | 3.98 µg/mL |
| B5 | > 20 µg/mL | > 20 µg/mL |

What follows are binders tested against LASV Pinneo (lineage I) glycoprotein (Lassa virus, strain Pinneo) (assay: cell-based or functional assay).

| Binder | IC50 (neutralization) | IC80 (neutralization) |
| --- | --- | --- |
| B6 | 0.537 µg/mL | 1.86 µg/mL |
| B7 | 1 µg/mL | 2.59 µg/mL |
| B2 | 3.25 µg/mL | 10.5 µg/mL |
| B8 | 1.83 µg/mL | 3.11 µg/mL |
| B9 | 6.98 µg/mL | > 20 µg/mL |
| B10 | 6.11 µg/mL | 12.2 µg/mL |
| B5 | > 20 µg/mL | > 20 µg/mL |

These binders were tested against LASV 237 (lineage III) glycoprotein (Lassa virus, strain 237) (assay: cell-based or functional assay).

| Binder | IC50 (neutralization) | IC80 (neutralization) |
| --- | --- | --- |
| B6 | 0.256 µg/mL | 0.844 µg/mL |
| B7 | 0.193 µg/mL | 0.494 µg/mL |
| B2 | 1.17 µg/mL | 3.64 µg/mL |
| B8 | 0.169 µg/mL | 0.603 µg/mL |
| B9 | 4.69 µg/mL | 19.4 µg/mL |
| B10 | 0.621 µg/mL | 3.23 µg/mL |
| B5 | > 20 µg/mL | > 20 µg/mL |

These binders were tested against LASV A19 (lineage II) glycoprotein (Lassa virus, strain A19) (assay: cell-based or functional assay).

| Binder | IC50 (neutralization) | IC80 (neutralization) |
| --- | --- | --- |
| B6 | 0.469 µg/mL | 1.15 µg/mL |
| B7 | 0.15 µg/mL | 0.527 µg/mL |
| B2 | 1.48 µg/mL | 4.59 µg/mL |
| B8 | 0.483 µg/mL | 3.51 µg/mL |
| B9 | 13 µg/mL | > 20 µg/mL |
| B10 | 1.2 µg/mL | 4.63 µg/mL |
| B5 | > 20 µg/mL | > 20 µg/mL |

Molecular target: T2, LASV Josiah (lineage IV) glycoprotein, …
Test: cell-based or functional assay
Remark: another data set of the same source

| Binder | IC50 (neutralization) | IC80 (neutralization) |
| --- | --- | --- |
| B6 | 0.137 µg/mL | 0.26 µg/mL |
| B7 | 0.139 µg/mL | 0.253 µg/mL |
| B2 | > 10 µg/mL | > 10 µg/mL |
| B8 | 0.188 µg/mL | 0.3 µg/mL |
| B9 | 0.57 µg/mL | 2.23 µg/mL |
| B10 | > 10 µg/mL | > 10 µg/mL |
| B5 | > 10 µg/mL | > 10 µg/mL |

What follows are binders tested against T1, LCMV WE strain GP (assay: cross-reactivity, immunofluorescence on GP-transfected 293T cells).

| Binder | binding result |
| --- | --- |
| B6 | binds |
